Laboratory results from US9725702B2, “Laccase from ganoderma lucidum capable of enhancing enzymatic degradation of lignocellulolytic biomass” (DANMARKS TEKNISKE UNIVERSITET, priority 2012, dated 2017).

Experiment: Laccase-cellulase catalyzed hydrolysis of pretreated biomass, glucose release
Assay type: biochemical
Conditions: with cellulase 1 or 2, pH 5.1, 50° C., 30 hour
Protocol: FIG. 13. A graphical comparison of glucose released over time during hydrolysis of STEX-SCB at pH 5.1 and 50° C. by each of commercial enzyme preparations Cellulase 1 (CC2) [A]; or Cellulase 2 [B], either alone, or in combination with a laccase enzyme; the tested laccases being respectively LacGL1 and GLlac1 (LacJooSS; Q9HG17) derived from G. lucidum; and laccases derived from Agaricus bisporus (Sigma 40452), Pleurotus ostreatus (Sigma 75117) and, Trametes versicolor (Sigma 51639).
The commercial fungal laccases were purchased as lyophilized protein samples from Sigma Aldrich. A solution of each of the above 5 laccases was prepared in a citric buffer containing 20% of glycerol (pH 5.1, 100 mM).
Two different commercially available cellulase enzyme preparations used in the comparative study were “Cellulase 1” and “Cellulase 2”, which were tested in combination with each of the laccases listed above.
The three different types of pretreated biomass used in the comparative study were sugarcane bagasse, barley straw and wheat straw. The source and pre-treatment of the sugarcane bagasse by steam explosion was as set out in Example 9. […] The composition of the dry and the pretreated biomass were determined according to the US National Renewable Energy Laboratory (NREL) procedures (Sluiter et al, 2010).
The laccase-cellulase catalyzed hydrolysis of the pretreated biomass samples to release glucose was performed as follows: Hydrolysis of 5% (w/v) samples of pretreated sugarcane bagasse, barley straw, and wheat straw biomass were assayed using an Enzyme/Substrate (E/S) ratio of 0.064% w/w for laccases and of 0.4% w/w for each commercial cellulase preparation in each hydrolysis reaction. The E/S dosage was based on the total protein concentration used, as determined using Pierce BCA (BiCinchoninic Acid) protein assay kit microplate procedure according to manufacturer's instruction (Thermo Fisher Scientific, Rockford, US). […]
Laccase and cellulase-mediated hydrolysis of the 3 biomass forms, measured as glucose release, are shown graphically in FIGS. 13, 14 and 15. […]

- glucose release compared to GLlac1: the same
- glucose release compared to the other tested laccases (p<0.05): significantly enhanced
B1: LacGL1: Fungal laccase from Ganoderma lucidum CBS229.93 (SEQ ID NO: 5/9), recombinantly expressed in Pichia pastoris X-33 (protein, listed as Ganoderma lucidum)
chain: GIGPKTDLTISNADVAPDGYTRAAVVVNGVFPAPLITGNKGDRFQLNVIDQMTNHTMLKSTSIHWHGFFQKGTNWADGPAFINQCPISSGHSFLYDFQVPDQAGTFWYHSHLSTQYCDGLRGPFVVYDPKDPLKKLYDIDDDSTVITLTDWYHVAARLGPRFPLGSDSTLINGLGRSTTNVTADLAVINVTQGKRYRFRLVSLSCDPNYTFSIDDHNMTVIEADGIETQPVTVNAIQIFSAQRYSFVLTANQTIDNYWIRANPNFGNVGFTDGINSAILRYAGADPVEPTTSQQTTQNLLNEVDLHPFVPKRTPGQPTQGGVDTAINMVFNFNGSNFFINNASFVPPTVPVLLQILSGAQAAQDLLPSGSVYTLPVNKSIELTFPATANAPGAPHPFHLHGHAFAVVRSAGSTVYNYDNPVWRDVVSTGTPAAGDNVTIRFQTDNPGPWFLHCHIDFHLEAGFAVVFAEDPTDTSLANPVPKAWSDLCPTYDALSVDDQ
modifications: mat_peptide (1)..(499) Mature LacGL1 laccase (minus signal peptide)
